The values that follow come from publication PMC7173060 (Journal of Molecular Biology, 2004).

The data set deals with the molecule itself. Briefly: cross-linking.

B1: full-length rabies virus phosphoprotein (P), C-terminal His-tagged (natural protein)
chain: MSKIFVNPSAIRAGLADLEMAEETVDLINRNIEDNQAHLQGEPIEVDNLPEDMKRLHLDDEKSSNLGEMVRVGEGKYREDFQMDEGEDPNLLFQSYLDNVGVQIVRQMRSGERFLKIWSQTVEEIVSYVTVNFPNPPRRSSEDKSTQTTGRELKKETTSAFSQRESQPSKARMVAQVAPGPPALEWSATNEEDDLSVEAEIAHQIAESFSKKYKFPSRSSGIFLYNFEQLKMNLDDIVKEAKNVPGVTRLAHDGSKIPLRCVLGWVALANSKKFQLLVEADKLSKIMQDDLNRYTSC
Regarding B1, the binding result is “binds”.
